{"source": "paper PMC8170004", "about": "(iScience, 2021)", "binders": {"B1": {"name": "Bivalent Human FSTL3-Fc (Fc fusion)", "chain": "MGSGNPAPGGVCWLQQGQEATCSLVLQTDVTRAECCASGNIDTAWSNLTHPGNKINLLGFLGLVHCLPCKDSCDGVECGPGKACRMLGGRPRCECAPDCSGLPARLQVCGSDGATYRDECELRAARCRGHPDLSVMYRGRCRKSCEHVVCPRPQSCVVDQTGSAHCVVCRAAPCPVPSSPGQELCGNNNVTYISSCHMRQATCFLGRSIGVRHAGSCAGTPEEPPGGESAEEEENFV"}}, "key": {"[1]": {"biological_target": "T1, Human GDF11, biotinylated (human, UniProt O95390 299-407, biotin (Biotin Labeling Kit-NH2))", "T1 sequence": "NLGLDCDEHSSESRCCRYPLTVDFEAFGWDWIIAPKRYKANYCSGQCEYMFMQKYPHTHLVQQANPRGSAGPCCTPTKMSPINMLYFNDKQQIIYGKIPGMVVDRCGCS", "experiment": "ELISA"}, "Human GDF8, biotinylated": {"biological_target": "T2, Human GDF8, biotinylated (human, UniProt O14793 267-375, biotin (Biotin Labeling Kit-NH2))", "T2 sequence": "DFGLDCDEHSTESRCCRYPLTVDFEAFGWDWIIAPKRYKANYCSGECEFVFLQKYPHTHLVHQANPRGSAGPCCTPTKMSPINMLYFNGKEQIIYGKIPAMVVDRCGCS", "experiment": "ELISA"}}, "data": [{"binder": "B1", "values": [{"measurement": "binding result", "setting": "[1]", "value": "binds"}, {"measurement": "binding result", "setting": "Human GDF8, biotinylated", "value": "binds"}]}]}
